Percent decrease of binding against GP2 that was not digested data for one substance are collected here from PMC6113376.

The target of test [1] is porcine GP2 isoform 1, incompletely deglycosylated under native conditions (pig). Put plainly: static adhesion assay (bacteria on coated protein); porcine GP2 incubated in native conditions with (NE) or without (N) deglycosylation enzymes, coated; S. Typhimurium 5744 wild type and its fimH deletion mutant added.
Test [2] has as its target porcine GP2 isoform 2, incompletely deglycosylated under native conditions (pig). The description is as above.

For the substance “FimH of Salmonella Typhimurium wild type strain Tym5744 (from UniProt P37925 23-335) (natural protein)”, the percent decrease of binding against GP2 that was not digested in test [1] was found to be 59%; in test [2], 53%.
